In patent publication US20190119362A1 (KANEKA, published 2019):
Substitutions are numbered along the chain they refer to. Read-outs that look alike come from different tables or passages of the source.

B1: LB5t-Wild.1d (B5 domain of PpL 312 with deletion of N-terminal region) (other)
chain: GPLGSEQVTIKENIYFEDGTVQTATFKGTFAEATAEAYRYADLLSKEHGKYTADLEDGGYTINIRFAG
B2: LB3t-Wild.1d (other)
chain: GPLGSEEVTIKANLIYADGKTQTAEFKGTFEEATAEAYRYADLLAKENGKYTVDVADKGYTLNIKFAG
notes: also called B3 domain
B3: LB4t-Wild.1d (other)
chain: B2 chain with E31A, V53A, V55L, A56E, K58G, L62I, K65R
notes: also called B4 domain
B4: LC4t-Wild.1d (other)
chain: GPLGSEEVTIKVNLIFADGKTQTAEFKGTFEEATAEAYRYADLLAKVNGEYTADLEDGGYTINIKFAGK
notes: also called C4 domain
B5: LB1t-Wild.1d (other)
chain: GPLGSEEVTIKANLIFANGSTQTAEFKGTFEKATSEAYAYADTLKKDNGEYTVDVADKGYTLNIKFAG
notes: also called B1 domain
B6: LC1t-Wild.1d (other)
chain: GPLGSEEVTIKANLIFADGSTQNAEFKGTFAKAVSDAYAYADALKKDNGEYTVDVADKGLTLNIKFAGK
notes: also called C1 domain

Columns and labels:
Assay in all cases: SPR (Biacore 3000), Fab immobilized on CM5, peptide as analyte, 1:1 fit, 25 C
[1] = molecular target: T1, aTNFa-Fab (Fab fragment of Infliximab) (Chimeric antibody/IgG1κ)
T1 construct: domain: Fab fragment; also called Infliximab Fab; Remicade Fab
Description: (§1) The IgG-Fab was immobilized on a sensor tip CM5 by amine coupling method using N-hydroxysuccinimide (NHS) and N-ethyl-N′-(3-dimethylaminopropyl)carbodiimide hydrochloride (EDC), and ethanolamine was used for blocking. All of the sensor tip and reagents for immobilization were manufactured by GE Healthcare Bioscience. The IgG-Fab solution was diluted to about 10 times by using a buffer for immobilization (10 mM CK₃COOH—CH₃CONa, pH 4.5), and the Fab was immobilized on the sensor tip in accordance with the protocol attached to the Biacore 3000. In addition, a reference cell as negative control was also prepared by activating another flow cell on the tip with EDC/NHS and then immobilizing human serum albumin manufactured by Wako Pure Chemical Corporation. […] Binding response curves at the time of addition (association phase, for 1 minute) and after the addition (dissociation phase, for 1 minute) were sequentially obtained at a measurement temperature of 25° C. After each measurement, about 20 mM NaOH was added for washing. With respect to the obtained binding response curve from which the binding response curve of the reference cell was subtracted, a fitting analysis was conducted by 1:1 binding model using a software included in the system, “BIA evaluation”, and an affinity constant (KA=kₒₙ/koff) for human IgG-Fab was calculated.

[2] = molecular target: T1, aTNFa-Fab (Fab fragment of Infliximab); remark: listed apart in the source
Description: as §1

[3] = molecular target: T1, aTNFa-Fab (Fab fragment of Infliximab); remark: listed apart in the source
Description: as §1

Row | Binder | Ka [2] | koff [2] | kon [2] | Ka [3] | koff [3] | kon [3] | also measured
1 | B1 | – | – | – | – | – | – | Ka [1]: 700000 M⁻¹; koff [1]: 0.215 s⁻¹; kon [1]: 150000 M⁻¹ s⁻¹
2 | B2 | 100000 M⁻¹ | 0.305 s⁻¹ | 20000 M⁻¹ s⁻¹ | – | – | – | –
3 | B3 | 300000 M⁻¹ | 0.239 s⁻¹ | 70000 M⁻¹ s⁻¹ | – | – | – | –
4 | B4 | – | – | – | 20000 M⁻¹ | 0.397 s⁻¹ | 10000 M⁻¹ s⁻¹ | –
5 | B5 | 30000 M⁻¹ | 0.481 s⁻¹ | 10000 M⁻¹ s⁻¹ | – | – | – | –
6 | B6 | – | – | – | 200000 M⁻¹ | 0.152 s⁻¹ | 20000 M⁻¹ s⁻¹ | –
